The record followed here is PMC8813930, “The toposiomerase IIIalpha-RMI1-RMI2 complex orients human Bloom’s syndrome helicase for efficient disruption of D-loops”.

This data set has as its target TOPOIIIalpha (TRR complex);RMI1 (TRR complex);RMI2 (TRR complex) (Homo sapiens;Homo sapiens;Homo sapiens, UniProt Q13472;Q9H9A7;Q96E14 1-1001;1-625;1-147, ||). Kind of data set: fluorescence anisotropy; 5 mM MgCl2; 50 mM Tris-HCl pH 7.5, 50 mM NaCl, 1 mM DTT, 5 mM MgCl2, 50 µg/mL BSA, 25 °C; 10 nM labeled DNA in direct titrations. As to conditions: protein: recombinant;recombinant;recombinant; tags: His;;; copies: 1;1;1; label: 3'-fluorescein; single strand.

TOPOIIIalpha (TRR complex);RMI1 (TRR complex);RMI2 (TRR complex), sequence (Q13472 whole entry, chain 1 of 3): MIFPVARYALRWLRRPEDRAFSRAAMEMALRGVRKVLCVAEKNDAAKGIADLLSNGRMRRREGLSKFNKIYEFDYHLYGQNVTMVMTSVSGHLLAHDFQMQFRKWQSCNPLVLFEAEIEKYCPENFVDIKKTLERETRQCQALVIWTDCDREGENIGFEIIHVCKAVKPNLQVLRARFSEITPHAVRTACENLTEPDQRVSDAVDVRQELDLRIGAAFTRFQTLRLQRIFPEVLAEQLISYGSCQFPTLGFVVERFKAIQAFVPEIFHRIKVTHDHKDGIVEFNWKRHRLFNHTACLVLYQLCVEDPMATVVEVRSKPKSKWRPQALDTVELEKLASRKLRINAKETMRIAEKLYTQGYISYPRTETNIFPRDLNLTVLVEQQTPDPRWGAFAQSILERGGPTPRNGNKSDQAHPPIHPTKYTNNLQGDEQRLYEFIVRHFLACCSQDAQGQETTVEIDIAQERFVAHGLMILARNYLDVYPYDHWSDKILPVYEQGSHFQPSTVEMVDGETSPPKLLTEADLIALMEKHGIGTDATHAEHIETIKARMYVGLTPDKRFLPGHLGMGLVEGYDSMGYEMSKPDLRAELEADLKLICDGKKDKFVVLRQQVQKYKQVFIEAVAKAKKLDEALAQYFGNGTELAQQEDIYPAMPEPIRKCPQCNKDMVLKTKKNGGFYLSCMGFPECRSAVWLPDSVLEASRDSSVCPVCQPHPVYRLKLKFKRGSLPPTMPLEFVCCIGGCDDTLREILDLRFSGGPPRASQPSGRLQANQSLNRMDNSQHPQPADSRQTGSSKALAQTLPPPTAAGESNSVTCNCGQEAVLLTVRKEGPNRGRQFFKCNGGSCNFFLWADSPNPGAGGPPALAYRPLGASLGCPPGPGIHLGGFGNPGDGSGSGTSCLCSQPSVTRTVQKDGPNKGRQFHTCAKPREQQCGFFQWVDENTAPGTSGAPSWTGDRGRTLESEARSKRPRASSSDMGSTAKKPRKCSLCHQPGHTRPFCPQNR
TOPOIIIalpha (TRR complex);RMI1 (TRR complex);RMI2 (TRR complex), sequence (Q9H9A7 whole entry, chain 2 of 3): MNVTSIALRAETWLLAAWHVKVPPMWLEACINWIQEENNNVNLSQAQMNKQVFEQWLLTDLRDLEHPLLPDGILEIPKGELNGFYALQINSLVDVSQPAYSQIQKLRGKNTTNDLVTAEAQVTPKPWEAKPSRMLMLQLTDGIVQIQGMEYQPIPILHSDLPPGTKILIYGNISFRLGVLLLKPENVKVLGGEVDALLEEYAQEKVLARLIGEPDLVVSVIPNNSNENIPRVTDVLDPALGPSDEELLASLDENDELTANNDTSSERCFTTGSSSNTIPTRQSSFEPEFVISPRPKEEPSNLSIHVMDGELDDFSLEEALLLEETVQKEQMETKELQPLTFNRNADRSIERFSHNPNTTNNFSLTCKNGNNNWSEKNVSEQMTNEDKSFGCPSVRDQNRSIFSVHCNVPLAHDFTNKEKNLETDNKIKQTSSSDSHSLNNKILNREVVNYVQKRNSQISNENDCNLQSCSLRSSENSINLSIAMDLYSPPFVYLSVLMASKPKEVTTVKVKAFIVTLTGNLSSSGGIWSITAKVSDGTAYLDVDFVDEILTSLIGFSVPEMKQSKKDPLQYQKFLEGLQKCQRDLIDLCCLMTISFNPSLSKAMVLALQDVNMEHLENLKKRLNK
TOPOIIIalpha (TRR complex);RMI1 (TRR complex);RMI2 (TRR complex), sequence (Q96E14 whole entry, chain 3 of 3): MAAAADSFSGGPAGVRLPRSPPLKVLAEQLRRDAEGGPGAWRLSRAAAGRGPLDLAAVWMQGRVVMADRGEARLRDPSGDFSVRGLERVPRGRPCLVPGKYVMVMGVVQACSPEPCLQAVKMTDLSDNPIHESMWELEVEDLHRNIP

B1: ss54-FLU (ssDNA)
DNA: TCCTTTTGATAAGAGGTCATTTTTGCGGATGGCTTAGAGCTTAATTGCGCAACG
A word on the Kd: it is a measure of binding affinity in units of concentration. Turning to B1, the Kd was 64 ± 13 nM.
